Experimental data taken from article PMC2955198 (Cell, 2010).
“And” between values parts separate entries of the source, which are not always exact repeats. Equal entries are not always repeated. Blank lines part the entries; values can stand above or below the molecule they belong to.

B1: S. cerevisiae Csm1 full-length (natural protein, UniProt P25651 1-190, looked up)
chain: MDPLTVYKNSVKQQIDSADLLVANLVNENFVLSEKLDTKATEIKQLQKQIDSLNAQVKELKTQTSQQAENSEVIKDLYEYLCNVRVHKSYEDDSGLWFDISQGTHSGGSSDDYSIMDYKLGFVKGQAQVTEVIYAPVLKQRSTEELYSLQSKLPEYLFETLSFPLSSLNQFYNKIAKSLNKKREKKDETE
B11: Csm1 1-181 (domain or fragment, S. cerevisiae, UniProt P25651 1-181, looked up)
chain: MDPLTVYKNSVKQQIDSADLLVANLVNENFVLSEKLDTKATEIKQLQKQIDSLNAQVKELKTQTSQQAENSEVIKDLYEYLCNVRVHKSYEDDSGLWFDISQGTHSGGSSDDYSIMDYKLGFVKGQAQVTEVIYAPVLKQRSTEELYSLQSKLPEYLFETLSFPLSSLNQFYNKIAKSLNK
B13: Mtw1 (subunit of the purified MIND complex) (natural protein, S. cerevisiae, UniProt P39731 1-289, looked up)
chain: MSAPTMRSTSILTEHLGYPPISLVDDIINAVNEIMYKCTAAMEKYLLSKSKIGEEDYGEEIKSGVAKLESLLENSVDKNFDKLELYVLRNVLRIPEEYLDANVFRLENQKDLVIVDENELKKSEEKLREKVNDVELAFKKNEMLLKRVTKVKRLLFTIRGFKQKLNELLKCKDDVQLQKILESLKPIDDTMTLLTDSLRKLYVDSESTSSTEEVEALLQRLKTNGKQNNKDFRTRYIDIRTNNVLRKLGLLGDKEDEKQSAKPDARTQAGDIVSIDIEEPQLDLLDDVL

Assays:
Pcs1 85-222 (S. pombe) = Pcs1 85-222 (S. pombe) (UniProt O13684); assay: AUC
[1] = target: S. pombe Pcs1 full-length (S. pombe) (UniProt O13684); assay: AUC
AUC = target: the molecule itself; assay: AUC
[2] = target: S. pombe Pcs1 full-length (S. pombe) (UniProt O13684); assay: AUC; remark: listed apart in the source
[3] = target: B13; assay: co-purification of a recombinant complex
Csm1 1-181 = target: B11; assay: AUC
[4] = target: B1; assay: AUC
[5] = target: T1, Dsn1 (subunit of the purified MIND complex) (S. cerevisiae, UniProt P40568 1-576); assay: co-purification of a recombinant complex
T1 sequence (looked up): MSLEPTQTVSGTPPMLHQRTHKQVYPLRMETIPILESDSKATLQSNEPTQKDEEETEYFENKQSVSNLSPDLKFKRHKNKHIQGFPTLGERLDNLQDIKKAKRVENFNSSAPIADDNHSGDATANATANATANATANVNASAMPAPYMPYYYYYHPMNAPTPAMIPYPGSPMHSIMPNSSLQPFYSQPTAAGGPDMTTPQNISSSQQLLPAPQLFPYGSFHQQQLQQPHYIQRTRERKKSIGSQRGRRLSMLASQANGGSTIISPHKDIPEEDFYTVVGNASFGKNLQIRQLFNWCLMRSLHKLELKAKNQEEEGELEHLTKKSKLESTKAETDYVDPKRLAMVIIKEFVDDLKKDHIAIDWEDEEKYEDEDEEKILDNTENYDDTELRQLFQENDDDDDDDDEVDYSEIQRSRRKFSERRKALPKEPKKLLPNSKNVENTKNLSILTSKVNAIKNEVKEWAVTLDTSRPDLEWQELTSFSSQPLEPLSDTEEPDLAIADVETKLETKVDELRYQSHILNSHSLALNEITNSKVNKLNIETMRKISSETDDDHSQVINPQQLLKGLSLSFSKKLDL

Sequence of S. pombe Pcs1 full-length (S. pombe) (O13684 whole entry): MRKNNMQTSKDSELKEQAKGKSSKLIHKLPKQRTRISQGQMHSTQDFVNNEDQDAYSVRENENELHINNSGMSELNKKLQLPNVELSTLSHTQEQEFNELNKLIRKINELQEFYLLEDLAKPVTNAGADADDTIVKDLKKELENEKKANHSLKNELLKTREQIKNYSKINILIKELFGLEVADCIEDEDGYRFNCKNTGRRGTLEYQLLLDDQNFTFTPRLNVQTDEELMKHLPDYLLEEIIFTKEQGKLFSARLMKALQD

stoichiometry N (Pcs1 85-222 (S. pombe)): 2
Molecule: Pcs1 85-222 (from UniProt O13684 85-222) (domain or fragment)

stoichiometry N [1]: 2
Molecule: S. pombe Pcs1 full-length (from UniProt O13684 1-261) (natural protein)

Molecule: B1
stoichiometry N (AUC): 2

stoichiometry N (copies of Mde4 in the complex) [2]: 2
stoichiometry N (copies of Pcs1 in the complex) [2]: 4
B2: Mde4 1-231 (domain or fragment)
chain: MSTISTSTDSKLDNLGLSVTSRRNQILFYLSKALNLAHLLRSDSLQKSFLDALKQSATDSELLHKNLDEIKFLQNEKLNNEKLLEQEQNEANDYRLKVERLEHKISDYVQEINSLNSQLQIQKSNPEKHEDAVSQNRLRGSLDTVSSPSKTHKANKDEKATRLHLIIANLKKALKEKDAEVLNLQSHVSSKESELDRFKIKLETEESNWKVRLQVLESKLATQDRKLRMQK

binding result [3]: binds
B3: Nnf1 (subunit of the purified MIND complex) (natural protein, S. cerevisiae, UniProt P47149 1-201, looked up)
chain: MVNSHGIRYIRLKQVFNRALDQSISKLQSWDKVSSCFPQYVNSKQGAINVANCQRQLTEFWTELCQREFKEIMEERNVEQKLNELDELILEAKERYTDRDQDEVNKGPAIDELSSKELVECHLYSQRMHAIHEIDERLAKVNEMNDQLAQELKDLETQVEVEKNEIGKMYDEYLGSHTDQPANVLLVQSLNDMVLELKENY

B4: peptide containing Lrs4 residues 2-30 (peptide, UniProt Q04087 2-30, looked up)
peptide: TTLLQLLSNYYKAKLDSERIYNEYVQSQY
stoichiometry N (Csm1 1-181): 4 copies of Csm1 in the complex and 2 copies of Lrs4 in the complex

B5: Lrs4 1-130 (domain or fragment, S. cerevisiae, UniProt Q04087 1-130, looked up)
chain: MTTLLQLLSNYYKAKLDSERIYNEYVQSQYEFASLDKLNNNKGDPKKVVDETLFLQRQIAQLNKQLQLSFQENEKLLSVQKNQKALYQSKLSSKDAFIDDLKLKLKVEQISVDKHNKERTPSTGRDEQQR
stoichiometry N [4]: 4 copies of Csm1 in the complex and 2 copies of Lrs4 in the complex

stoichiometry N (copies of Mde4 in the complex) [2]: 2
stoichiometry N (copies of Pcs1 in the complex) [2]: 4
B6: Mde4 1-125 (domain or fragment)
chain: MSTISTSTDSKLDNLGLSVTSRRNQILFYLSKALNLAHLLRSDSLQKSFLDALKQSATDSELLHKNLDEIKFLQNEKLNNEKLLEQEQNEANDYRLKVERLEHKISDYVQEINSLNSQLQIQKSN

B7: Lrs4 full-length (natural protein, S. cerevisiae, UniProt Q04087 1-347, looked up)
chain: MTTLLQLLSNYYKAKLDSERIYNEYVQSQYEFASLDKLNNNKGDPKKVVDETLFLQRQIAQLNKQLQLSFQENEKLLSVQKNQKALYQSKLSSKDAFIDDLKLKLKVEQISVDKHNKERTPSTGRDEQQRNSKAAHTSKPTIHLLSPIVNRDKPNNQTNDRGGNDPDSPTSQRRSRGLRSLLSSGKNTIFDSISKNLDDEINENAHIRNDTTSSKIAGKSPSRLSALQKSPELRKERNNMILKEHILRSKDDQNITSSRKLDNIELSSIGDSTAMTSRSSTVNANDILGNEENDGITKLKRVNKLTSSPVKRDCSTNKKRKLTKQRIATLPNSDEELSNNLNVDEFV
stoichiometry N [4]: 4 copies of Csm1 in the complex and 2 copies of Lrs4 in the complex

B8: Csm1 69-190 (domain or fragment, S. cerevisiae, UniProt P25651 69-190, looked up)
chain: ENSEVIKDLYEYLCNVRVHKSYEDDSGLWFDISQGTHSGGSSDDYSIMDYKLGFVKGQAQVTEVIYAPVLKQRSTEELYSLQSKLPEYLFETLSFPLSSLNQFYNKIAKSLNKKREKKDETE
stoichiometry N (AUC): 2

stoichiometry N (copies of Mde4 in the complex) [2]: 2
stoichiometry N (copies of Pcs1 in the complex) [2]: 4
B9: Mde4 1-77 (domain or fragment)
chain: MSTISTSTDSKLDNLGLSVTSRRNQILFYLSKALNLAHLLRSDSLQKSFLDALKQSATDSELLHKNLDEIKFLQNEK

stoichiometry N (copies of Mde4 in the complex) [2]: 2
stoichiometry N (copies of Pcs1 in the complex) [2]: 4
B10: Mde4 full-length (natural protein)
chain: MSTISTSTDSKLDNLGLSVTSRRNQILFYLSKALNLAHLLRSDSLQKSFLDALKQSATDSELLHKNLDEIKFLQNEKLNNEKLLEQEQNEANDYRLKVERLEHKISDYVQEINSLNSQLQIQKSNPEKHEDAVSQNRLRGSLDTVSSPSKTHKANKDEKATRLHLIIANLKKALKEKDAEVLNLQSHVSSKESELDRFKIKLETEESNWKVRLQVLESKLATQDRKLRMQKKSTERKSLLVSPRVSSPKLFSPSKQAIMGTRQPNATSGSPLSVTPFLQKTSTSIGLSSSPPQSSPSAQSSQPFSRDKYPHSMTVSPSNARYLKKHLDDTIPSNVSDINHNDHLKIPQSPSSLSPSKIPIRKKRKLKDTVSNCEFTEEDSESSFLLETIQPTKSTLRRSISPLKKRNDEINELKKGFTMKK

Molecule: B11
stoichiometry N (AUC): 2

B12: Lrs4 1-102 (domain or fragment, S. cerevisiae, UniProt Q04087 1-102, looked up)
chain: MTTLLQLLSNYYKAKLDSERIYNEYVQSQYEFASLDKLNNNKGDPKKVVDETLFLQRQIAQLNKQLQLSFQENEKLLSVQKNQKALYQSKLSSKDAFIDDLK
stoichiometry N [4]: 4 copies of Csm1 in the complex and 2 copies of Lrs4 in the complex

Molecule: B13
binding result [5]: binds
